According to US20240002522A1 (INSERM INSTITUT NATIONAL DE LA SANTE ET DE LA RECHERCHE …, published 2024):

T1: human CD25 (human, UniProt P01589 22-272)
T1 construct: In the functional assays it was native on T cells or SUDHL-1 cells; also called huCD25; hCD25
T1 sequence: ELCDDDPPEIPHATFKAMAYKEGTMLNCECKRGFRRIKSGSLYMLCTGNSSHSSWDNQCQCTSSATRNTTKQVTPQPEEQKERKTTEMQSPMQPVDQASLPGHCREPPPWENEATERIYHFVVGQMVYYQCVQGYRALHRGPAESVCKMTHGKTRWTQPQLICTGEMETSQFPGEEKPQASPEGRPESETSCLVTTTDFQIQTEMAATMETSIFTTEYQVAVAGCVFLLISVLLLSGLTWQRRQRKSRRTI


Biological target: T1, human CD25
Test: flow cytometry on HEK293 cells transiently transfected with huCD25; 3-fold dilutions from 500 nM; detection with anti-human IgG (Fc specific) FITC

Binder | binding result
B01 (antibody, V domains shown, detected with anti-human IgG (Fc specific); also called anti-CD25 antibody B01) VH: QVQLVESGGGVVQPGRSLRLSCAASGFTFSNHAMAWVRQAPGKGLEWVAVISYDGSNKYYADSVKGRFTISRDNAKSTLYLQMNSLRAEDTAVYYCTTGLNSGYDWGQGTLVTVSS VL: DIQMTQSPSSLSASVGDRVTITCRASQNISSFLNWYQQKPGEAPRRLIYGTNSLQSGVPSRFSGSGSGTDYTLTISSLQPEDFATYYCQQYNSWPWTFGQGTKLEIK | binds
H02 (antibody, V domains shown, detected with anti-human IgG (Fc specific); also called anti-CD25 antibody H02) VH: QVQLVESGGGVVQPGRSLRLSCAASGFTFSNHAMAWVRQAPGKGLEWVAVISYDGSNKYYRDSVKGRFTISRDNSQSTLYLQMNSLRAEDTAVYYCTTGLNSGYDWGQGTLVTVSS VL: DIQMTQSPSSLSASVGDRVTITCRASQNVSSFLNWYQQKPGEAPRRLIYGTNSLQSGVPSRFSGSGSGTDYTLTISSLQPEDFATYYCQQYNSWPWTFGQGTKLEIK | binds
H08 (antibody, V domains shown, detected with anti-human IgG (Fc specific); also called anti-CD25 antibody H08) VH: QVQLVESGGGVVQPGRSLRLSCAASGFTFSNHAMAWVRQAPGKGLEWVAVISYDGSNKYYADSVKGRFTISRDNSKNTLYLQMNSLRAEDTAVYYCTTGLNSGYDWGQGTLVTVSS VL: DIQMTQSPSSLSASVGDRVTITCRASQSVSSYLNWYQQKPGKAPRRLIYGTNSLQSGVPSRFSGSGSGTDYTLTISSLQPEDFATYYCQQYTSWPWTFGQGTKLEIK | binds
H01 (antibody, V domains shown, detected with anti-human IgG (Fc specific); also called anti-CD25 antibody H01) VH: QVQLVESGGGVVQPGRSLRLSCAASGFTFSNHAMAWVRQAPGKGLEWVAVISYDGSNKYYADSVKGRFTISRDNSQNTLYLQMNSLRAEDTAVYYCTTGLNSGYDWGQGTLVTVSS VL: DIQMTQSPSSLSASVGDRVTITCRASQNVSSFLNWYQQKPGKAPRRLIYGTSSLQSGVPSRFSGSGSGTDYTLTISSLQPEDFATYYCQQYTSWPWTFGQGTKLEIK | binds

The next lines start with the values.

binding result | Binder
binds | G09 (antibody, V domains shown, detected with anti-human IgG (Fc specific); also called anti-CD25 antibody G09) VH: QVQLVESGGGVVQPGRSLRLSCAASGFTFSNHAMAWVRQAPGKGLEWVAVISYDGSNKYYRDSVKGRFTISRDNAQNTLYLQMNSLRAEDTAVYYCTTGLNSGYDWGQGTLVTVSS VL: DIQMTQSPSSLSASVGDRVTITCRASQNVSSFLNWYQQKPGEAPRRLIYGTNSLQSGVPSRFSGSGSGTDYTLTISSLQPEDFATYYCQQYNSWPWTFGQGTKLEIK
binds | H07 (antibody, V domains shown, It was detected with anti-human IgG (Fc specific), and a human IgG1 isotype served as control; also called anti-CD25 antibody H07) VH: QVQLVESGGGVVQPGRSLRLSCAASGFTFSNHAMAWVRQAPGKGLEWVAVISYDGSNKYYADSVKGRFTISRDNAKNTLYLQMNSLRAEDTAVYYCTTGWNSGYDWGQGTLVTVSS VL: DIQMTQSPSSLSASVGDRVTITCRASQSVNSFLNWYQQKPGKAPRRLIYGTSSLQSGVPSRFSGSGSGTDYTLTISSLQPEDFATYYCQQYTSWPWTFGQGTKLEIK
